Here are results for 20 molecules from patent US20210388087A1 (Chugai, published 2021).

T1: Human CD3eg linker (human)
T1 construct: single-chain construct; also called recombinant human CD3
T1 chain: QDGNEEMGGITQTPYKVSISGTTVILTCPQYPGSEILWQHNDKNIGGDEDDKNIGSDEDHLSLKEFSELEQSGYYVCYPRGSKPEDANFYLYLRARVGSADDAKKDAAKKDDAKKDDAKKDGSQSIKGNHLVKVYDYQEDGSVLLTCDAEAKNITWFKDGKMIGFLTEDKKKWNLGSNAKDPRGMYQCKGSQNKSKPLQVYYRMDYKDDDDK

B1: dBBDu183H D101Y/dBBDu072L (antibody, name in Kabat numbering, V domains shown)
VH: QVQLVESGGGLVQPGRSLRLSCAASGFTFSNAWMHWVRQAPGKGLEWVAQIKDKGNAYAAYYAPSVKGRFTISRDDSKNSIYLQMNSLKTEDTAVYYCHYVHYASASTVLPAFGVYAWGQGTTVTVSS
VL: DIVMTQSPLSLPVTPGEPASISCQASQELVHMNRNTYLHWYQQKPGQAPRLLIYKVSNRFPGVPDRFSGSGSGTDFTLKISRVEAEDVGVYYCAQGTSVPFTFGQGTKLEIK
B2: dBBDu183H F100gG/dBBDu072L (antibody, name in Kabat numbering, V domains shown)
VH: QVQLVESGGGLVQPGRSLRLSCAASGFTFSNAWMHWVRQAPGKGLEWVAQIKDKGNAYAAYYAPSVKGRFTISRDDSKNSIYLQMNSLKTEDTAVYYCHYVHYASASTVLPAGGVDAWGQGTTVTVSS
VL: DIVMTQSPLSLPVTPGEPASISCQASQELVHMNRNTYLHWYQQKPGQAPRLLIYKVSNRFPGVPDRFSGSGSGTDFTLKISRVEAEDVGVYYCAQGTSVPFTFGQGTKLEIK
B3: dBBDu183H G65D/dBBDu072L (antibody, name in Kabat numbering, V domains shown)
VH: QVQLVESGGGLVQPGRSLRLSCAASGFTFSNAWMHWVRQAPGKGLEWVAQIKDKGNAYAAYYAPSVKDRFTISRDDSKNSIYLQMNSLKTEDTAVYYCHYVHYASASTVLPAFGVDAWGQGTTVTVSS
VL: DIVMTQSPLSLPVTPGEPASISCQASQELVHMNRNTYLHWYQQKPGQAPRLLIYKVSNRFPGVPDRFSGSGSGTDFTLKISRVEAEDVGVYYCAQGTSVPFTFGQGTKLEIK
B4: dBBDu183H F100gV/dBBDu072L (antibody, name in Kabat numbering, V domains shown)
VH: QVQLVESGGGLVQPGRSLRLSCAASGFTFSNAWMHWVRQAPGKGLEWVAQIKDKGNAYAAYYAPSVKGRFTISRDDSKNSIYLQMNSLKTEDTAVYYCHYVHYASASTVLPAVGVDAWGQGTTVTVSS
VL: DIVMTQSPLSLPVTPGEPASISCQASQELVHMNRNTYLHWYQQKPGQAPRLLIYKVSNRFPGVPDRFSGSGSGTDFTLKISRVEAEDVGVYYCAQGTSVPFTFGQGTKLEIK
B5: dBBDu183H F100gD/dBBDu072L (antibody, name in Kabat numbering, V domains shown)
VH: QVQLVESGGGLVQPGRSLRLSCAASGFTFSNAWMHWVRQAPGKGLEWVAQIKDKGNAYAAYYAPSVKGRFTISRDDSKNSIYLQMNSLKTEDTAVYYCHYVHYASASTVLPADGVDAWGQGTTVTVSS
VL: DIVMTQSPLSLPVTPGEPASISCQASQELVHMNRNTYLHWYQQKPGQAPRLLIYKVSNRFPGVPDRFSGSGSGTDFTLKISRVEAEDVGVYYCAQGTSVPFTFGQGTKLEIK
B6: dBBDu183H F100gY/dBBDu072L (antibody, name in Kabat numbering, V domains shown)
VH: QVQLVESGGGLVQPGRSLRLSCAASGFTFSNAWMHWVRQAPGKGLEWVAQIKDKGNAYAAYYAPSVKGRFTISRDDSKNSIYLQMNSLKTEDTAVYYCHYVHYASASTVLPAYGVDAWGQGTTVTVSS
VL: DIVMTQSPLSLPVTPGEPASISCQASQELVHMNRNTYLHWYQQKPGQAPRLLIYKVSNRFPGVPDRFSGSGSGTDFTLKISRVEAEDVGVYYCAQGTSVPFTFGQGTKLEIK
B7: dBBDu183H F100gH/dBBDu072L (antibody, name in Kabat numbering, V domains shown)
VH: QVQLVESGGGLVQPGRSLRLSCAASGFTFSNAWMHWVRQAPGKGLEWVAQIKDKGNAYAAYYAPSVKGRFTISRDDSKNSIYLQMNSLKTEDTAVYYCHYVHYASASTVLPAHGVDAWGQGTTVTVSS
VL: DIVMTQSPLSLPVTPGEPASISCQASQELVHMNRNTYLHWYQQKPGQAPRLLIYKVSNRFPGVPDRFSGSGSGTDFTLKISRVEAEDVGVYYCAQGTSVPFTFGQGTKLEIK
B8: dBBDu183H F100gW/dBBDu072L (antibody, name in Kabat numbering, V domains shown)
VH: QVQLVESGGGLVQPGRSLRLSCAASGFTFSNAWMHWVRQAPGKGLEWVAQIKDKGNAYAAYYAPSVKGRFTISRDDSKNSIYLQMNSLKTEDTAVYYCHYVHYASASTVLPAWGVDAWGQGTTVTVSS
VL: DIVMTQSPLSLPVTPGEPASISCQASQELVHMNRNTYLHWYQQKPGQAPRLLIYKVSNRFPGVPDRFSGSGSGTDFTLKISRVEAEDVGVYYCAQGTSVPFTFGQGTKLEIK
B9: dBBDu183H G65F/dBBDu072L (antibody, name in Kabat numbering, V domains shown)
VH: QVQLVESGGGLVQPGRSLRLSCAASGFTFSNAWMHWVRQAPGKGLEWVAQIKDKGNAYAAYYAPSVKFRFTISRDDSKNSIYLQMNSLKTEDTAVYYCHYVHYASASTVLPAFGVDAWGQGTTVTVSS
VL: DIVMTQSPLSLPVTPGEPASISCQASQELVHMNRNTYLHWYQQKPGQAPRLLIYKVSNRFPGVPDRFSGSGSGTDFTLKISRVEAEDVGVYYCAQGTSVPFTFGQGTKLEIK
B10: dBBDu183H G65E/dBBDu072L (antibody, name in Kabat numbering, V domains shown)
VH: QVQLVESGGGLVQPGRSLRLSCAASGFTFSNAWMHWVRQAPGKGLEWVAQIKDKGNAYAAYYAPSVKERFTISRDDSKNSIYLQMNSLKTEDTAVYYCHYVHYASASTVLPAFGVDAWGQGTTVTVSS
VL: DIVMTQSPLSLPVTPGEPASISCQASQELVHMNRNTYLHWYQQKPGQAPRLLIYKVSNRFPGVPDRFSGSGSGTDFTLKISRVEAEDVGVYYCAQGTSVPFTFGQGTKLEIK
B11: dBBDu183H F100gN/dBBDu072L (antibody, name in Kabat numbering, V domains shown)
VH: QVQLVESGGGLVQPGRSLRLSCAASGFTFSNAWMHWVRQAPGKGLEWVAQIKDKGNAYAAYYAPSVKGRFTISRDDSKNSIYLQMNSLKTEDTAVYYCHYVHYASASTVLPANGVDAWGQGTTVTVSS
VL: DIVMTQSPLSLPVTPGEPASISCQASQELVHMNRNTYLHWYQQKPGQAPRLLIYKVSNRFPGVPDRFSGSGSGTDFTLKISRVEAEDVGVYYCAQGTSVPFTFGQGTKLEIK
B12: dBBDu183H F100gE/dBBDu072L (antibody, name in Kabat numbering, V domains shown)
VH: QVQLVESGGGLVQPGRSLRLSCAASGFTFSNAWMHWVRQAPGKGLEWVAQIKDKGNAYAAYYAPSVKGRFTISRDDSKNSIYLQMNSLKTEDTAVYYCHYVHYASASTVLPAEGVDAWGQGTTVTVSS
VL: DIVMTQSPLSLPVTPGEPASISCQASQELVHMNRNTYLHWYQQKPGQAPRLLIYKVSNRFPGVPDRFSGSGSGTDFTLKISRVEAEDVGVYYCAQGTSVPFTFGQGTKLEIK
B13: dBBDu183H F100gR/dBBDu072L (antibody, name in Kabat numbering, V domains shown)
VH: QVQLVESGGGLVQPGRSLRLSCAASGFTFSNAWMHWVRQAPGKGLEWVAQIKDKGNAYAAYYAPSVKGRFTISRDDSKNSIYLQMNSLKTEDTAVYYCHYVHYASASTVLPARGVDAWGQGTTVTVSS
VL: DIVMTQSPLSLPVTPGEPASISCQASQELVHMNRNTYLHWYQQKPGQAPRLLIYKVSNRFPGVPDRFSGSGSGTDFTLKISRVEAEDVGVYYCAQGTSVPFTFGQGTKLEIK
B14: dBBDu183H F100gK/dBBDu072L (antibody, name in Kabat numbering, V domains shown)
VH: QVQLVESGGGLVQPGRSLRLSCAASGFTFSNAWMHWVRQAPGKGLEWVAQIKDKGNAYAAYYAPSVKGRFTISRDDSKNSIYLQMNSLKTEDTAVYYCHYVHYASASTVLPAKGVDAWGQGTTVTVSS
VL: DIVMTQSPLSLPVTPGEPASISCQASQELVHMNRNTYLHWYQQKPGQAPRLLIYKVSNRFPGVPDRFSGSGSGTDFTLKISRVEAEDVGVYYCAQGTSVPFTFGQGTKLEIK
B15: dBBDu183H F100gQ/dBBDu072L (antibody, name in Kabat numbering, V domains shown)
VH: QVQLVESGGGLVQPGRSLRLSCAASGFTFSNAWMHWVRQAPGKGLEWVAQIKDKGNAYAAYYAPSVKGRFTISRDDSKNSIYLQMNSLKTEDTAVYYCHYVHYASASTVLPAQGVDAWGQGTTVTVSS
VL: DIVMTQSPLSLPVTPGEPASISCQASQELVHMNRNTYLHWYQQKPGQAPRLLIYKVSNRFPGVPDRFSGSGSGTDFTLKISRVEAEDVGVYYCAQGTSVPFTFGQGTKLEIK
B16: dBBDu183H F100gT/dBBDu072L (antibody, name in Kabat numbering, V domains shown)
VH: QVQLVESGGGLVQPGRSLRLSCAASGFTFSNAWMHWVRQAPGKGLEWVAQIKDKGNAYAAYYAPSVKGRFTISRDDSKNSIYLQMNSLKTEDTAVYYCHYVHYASASTVLPATGVDAWGQGTTVTVSS
VL: DIVMTQSPLSLPVTPGEPASISCQASQELVHMNRNTYLHWYQQKPGQAPRLLIYKVSNRFPGVPDRFSGSGSGTDFTLKISRVEAEDVGVYYCAQGTSVPFTFGQGTKLEIK
B17: dBBDu183H F100gS/dBBDu072L (antibody, name in Kabat numbering, V domains shown)
VH: QVQLVESGGGLVQPGRSLRLSCAASGFTFSNAWMHWVRQAPGKGLEWVAQIKDKGNAYAAYYAPSVKGRFTISRDDSKNSIYLQMNSLKTEDTAVYYCHYVHYASASTVLPASGVDAWGQGTTVTVSS
VL: DIVMTQSPLSLPVTPGEPASISCQASQELVHMNRNTYLHWYQQKPGQAPRLLIYKVSNRFPGVPDRFSGSGSGTDFTLKISRVEAEDVGVYYCAQGTSVPFTFGQGTKLEIK
B18: dBBDu183H G65K/dBBDu072L (antibody, name in Kabat numbering, V domains shown)
VH: QVQLVESGGGLVQPGRSLRLSCAASGFTFSNAWMHWVRQAPGKGLEWVAQIKDKGNAYAAYYAPSVKKRFTISRDDSKNSIYLQMNSLKTEDTAVYYCHYVHYASASTVLPAFGVDAWGQGTTVTVSS
VL: DIVMTQSPLSLPVTPGEPASISCQASQELVHMNRNTYLHWYQQKPGQAPRLLIYKVSNRFPGVPDRFSGSGSGTDFTLKISRVEAEDVGVYYCAQGTSVPFTFGQGTKLEIK
B19: dBBDu183H G65H/dBBDu072L (antibody, name in Kabat numbering, V domains shown)
VH: QVQLVESGGGLVQPGRSLRLSCAASGFTFSNAWMHWVRQAPGKGLEWVAQIKDKGNAYAAYYAPSVKHRFTISRDDSKNSIYLQMNSLKTEDTAVYYCHYVHYASASTVLPAFGVDAWGQGTTVTVSS
VL: DIVMTQSPLSLPVTPGEPASISCQASQELVHMNRNTYLHWYQQKPGQAPRLLIYKVSNRFPGVPDRFSGSGSGTDFTLKISRVEAEDVGVYYCAQGTSVPFTFGQGTKLEIK
B20: dBBDu183H G65N/dBBDu072L (antibody, name in Kabat numbering, V domains shown)
VH: QVQLVESGGGLVQPGRSLRLSCAASGFTFSNAWMHWVRQAPGKGLEWVAQIKDKGNAYAAYYAPSVKNRFTISRDDSKNSIYLQMNSLKTEDTAVYYCHYVHYASASTVLPAFGVDAWGQGTTVTVSS
VL: DIVMTQSPLSLPVTPGEPASISCQASQELVHMNRNTYLHWYQQKPGQAPRLLIYKVSNRFPGVPDRFSGSGSGTDFTLKISRVEAEDVGVYYCAQGTSVPFTFGQGTKLEIK

The test has as its target T1, Human CD3eg linker. The test is described as follows: SPR, vs unmutated H183/L072. In general terms: In SPR one partner is held on a chip, and binding of the other changes the refractive index at the surface.
With B1, the “fold change of affinity” value amounted to 0 fold.

On to B2, for which the “fold change of affinity” value is 1.2 fold. Then B3, with 1 fold; and B4, with 1.2 fold.

On to B5, for which the “fold change of affinity” value was 0.3 fold.

In the case of B6, the “fold change of affinity” value was found to be 1.2 fold. Then B7, with 1.8 fold.

Take B8: the “fold change of affinity” value was determined as 0.9 fold. Then B9, with 0.9 fold; and B10, with 1 fold; and B11, with 0.9 fold. The figure for B12 is 0.5 fold. Then B13, with 3.4 fold; and B14, with 1.7 fold; and B15, with 1.3 fold. On to B16, for which the “fold change of affinity” value was determined as 1.3 fold. Regarding B17, the “fold change of affinity” value was determined as 1.4 fold. B18: the “fold change of affinity” value stood at 1.1 fold.

B19: the “fold change of affinity” value came out at 0.9 fold. Take B20: the “fold change of affinity” value amounted to 0.9 fold.
